In publication PMC10079162 (Nature Communications, 2023):
Numbering of substitutions follows the chain as printed. Names may count otherwise.

B1: Nb.b201 WT (VHH)
VHH: QVQLQESGGGLVQAGGSLRLSCAASGYISDAYYMGWYRQAPGKEREFVATITHGTNTYYADSVKGRFTISRDNAKNTVYLQMNSLKPEDTAVYYCAVLETRSYSFRYWGQGTQVTVSS
notes: source: HEK293 cells; obtained at high purity
B2: Nb.b201 A31D T55G (VHH)
VHH: B1 VHH with A31D, T55G
notes: as for B1
B3: Nb.b201 H53P T55G (VHH)
VHH: B1 VHH with H53P, T55G
notes: as for B1
B4: Nb.b201 A31D (VHH)
VHH: B1 VHH with A31D
notes: as for B1
B5: Nb.b201 H53P (VHH)
VHH: B1 VHH with H53P
notes: as for B1
B6: Nb.b201 H53R (VHH)
VHH: B1 VHH with H53R
notes: as for B1
B7: Nb.b201 T55D (VHH)
VHH: B1 VHH with T55D
notes: as for B1
B8: Nb.b201 T55G (VHH)
VHH: B1 VHH with T55G
notes: as for B1
B9: Nb.b201 A31D T55D (VHH)
VHH: B1 VHH with A31D, T55D
notes: as for B1
B10: CR3022 M40P S56G Q67R; T59K (output_8) (antibody, V domains shown)
VH: QMQLVQSGTEVKKPGESLKISCKGSGYGFITYWIGWVRQPPGKGLEWMGIIYPGDGETRYSPSFQGRVTISADKSINTAYLQWSSLKASDTAIYYCAGGSGISTPMDVWGQGTTVTVVS
VL: not shown

Biological target: T1, human serum albumin (Homo sapiens, UniProt P02768)
T1 construct: also called HSA
Test: BLI; format and conditions not told in the main text (methods are in the Supplementary Materials)
Details: both partners purified

Binder | binding result
B1 | binds
B2 | binds
B3 | binds
B4 | binds
B5 | binds
B6 | binds
B7 | binds
B8 | binds
B9 | binds

Biological target: SARS CoV-2 RBD (SARS-CoV-2, strain  …, UniProt P0DTC2)
Test: not given
Details: not given

Binder | binding result
B10 | binds
